Data as given in patent publication US20250320252A1 (Scripps Research, published 2025).
Where two headings read alike, the source gives them in different places. Bridge positions count the residues as written; N and C are the ends. Square brackets hold non-standard residues; d marks the D form. Ends that are not written are not given here. C20L5A = not defined here; L5A(S) = not defined here; L5A = not defined here; Aib = CC(C)(N)C(=O)O

T1: human GIP receptor (human, UniProt P48546 22-466)
T1 sequence (looked up): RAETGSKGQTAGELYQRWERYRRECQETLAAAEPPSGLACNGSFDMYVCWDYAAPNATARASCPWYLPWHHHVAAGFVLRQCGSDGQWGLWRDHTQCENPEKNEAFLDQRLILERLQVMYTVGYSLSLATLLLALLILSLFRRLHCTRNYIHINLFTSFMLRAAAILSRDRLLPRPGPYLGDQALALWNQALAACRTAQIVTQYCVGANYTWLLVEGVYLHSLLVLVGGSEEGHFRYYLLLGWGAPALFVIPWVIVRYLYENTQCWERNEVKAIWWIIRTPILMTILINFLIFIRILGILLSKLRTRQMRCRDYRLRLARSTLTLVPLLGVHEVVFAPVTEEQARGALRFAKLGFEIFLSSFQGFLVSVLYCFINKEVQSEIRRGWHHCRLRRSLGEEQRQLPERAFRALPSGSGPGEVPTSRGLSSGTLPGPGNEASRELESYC

T2: mouse GIPR (mouse, UniProt Q0P543 19-460)
T2 sequence (looked up): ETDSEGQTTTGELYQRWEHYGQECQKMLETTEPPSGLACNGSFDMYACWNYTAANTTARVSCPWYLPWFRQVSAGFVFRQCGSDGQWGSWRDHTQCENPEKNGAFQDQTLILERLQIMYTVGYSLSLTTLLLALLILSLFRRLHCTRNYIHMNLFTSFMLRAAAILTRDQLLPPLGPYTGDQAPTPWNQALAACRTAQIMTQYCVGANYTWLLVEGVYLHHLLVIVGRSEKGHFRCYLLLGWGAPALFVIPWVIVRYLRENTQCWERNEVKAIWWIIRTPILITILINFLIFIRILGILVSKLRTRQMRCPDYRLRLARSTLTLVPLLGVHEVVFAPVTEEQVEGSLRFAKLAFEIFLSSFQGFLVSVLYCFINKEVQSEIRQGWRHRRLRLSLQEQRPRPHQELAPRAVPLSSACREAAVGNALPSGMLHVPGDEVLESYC

T3: dog GLP1R (dog, UniProt A0A8I3NUR9 25-464)
T3 sequence: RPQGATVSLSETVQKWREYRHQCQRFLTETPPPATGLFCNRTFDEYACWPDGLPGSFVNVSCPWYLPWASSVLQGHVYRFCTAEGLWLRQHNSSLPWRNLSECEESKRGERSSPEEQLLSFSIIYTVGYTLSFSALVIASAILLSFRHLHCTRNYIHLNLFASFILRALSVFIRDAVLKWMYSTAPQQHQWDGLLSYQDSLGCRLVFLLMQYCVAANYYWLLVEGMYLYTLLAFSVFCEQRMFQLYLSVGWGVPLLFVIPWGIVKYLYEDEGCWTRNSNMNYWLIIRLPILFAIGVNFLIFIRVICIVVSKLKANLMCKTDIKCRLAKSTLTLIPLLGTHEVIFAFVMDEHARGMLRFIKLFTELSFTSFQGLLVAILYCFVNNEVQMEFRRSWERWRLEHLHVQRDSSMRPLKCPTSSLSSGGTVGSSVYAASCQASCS

T4: cynomolgus monkey GIPR (cynomolgus monkey, UniProt A0A2K5VD75 22-466)
T4 sequence: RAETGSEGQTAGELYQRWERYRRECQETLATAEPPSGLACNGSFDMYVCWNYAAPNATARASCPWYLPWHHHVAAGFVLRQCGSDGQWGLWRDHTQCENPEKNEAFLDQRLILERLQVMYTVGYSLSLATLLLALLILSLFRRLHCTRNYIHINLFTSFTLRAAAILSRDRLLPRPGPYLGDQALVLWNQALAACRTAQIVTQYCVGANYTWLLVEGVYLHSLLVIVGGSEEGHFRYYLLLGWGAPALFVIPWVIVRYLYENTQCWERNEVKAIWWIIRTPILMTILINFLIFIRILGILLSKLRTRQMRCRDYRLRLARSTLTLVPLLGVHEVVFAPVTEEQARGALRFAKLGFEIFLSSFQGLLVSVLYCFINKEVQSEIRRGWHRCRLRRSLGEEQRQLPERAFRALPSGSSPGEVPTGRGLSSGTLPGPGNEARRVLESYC

T5: mouse GLP1R (mouse, UniProt O35659 22-463)
T5 sequence (looked up): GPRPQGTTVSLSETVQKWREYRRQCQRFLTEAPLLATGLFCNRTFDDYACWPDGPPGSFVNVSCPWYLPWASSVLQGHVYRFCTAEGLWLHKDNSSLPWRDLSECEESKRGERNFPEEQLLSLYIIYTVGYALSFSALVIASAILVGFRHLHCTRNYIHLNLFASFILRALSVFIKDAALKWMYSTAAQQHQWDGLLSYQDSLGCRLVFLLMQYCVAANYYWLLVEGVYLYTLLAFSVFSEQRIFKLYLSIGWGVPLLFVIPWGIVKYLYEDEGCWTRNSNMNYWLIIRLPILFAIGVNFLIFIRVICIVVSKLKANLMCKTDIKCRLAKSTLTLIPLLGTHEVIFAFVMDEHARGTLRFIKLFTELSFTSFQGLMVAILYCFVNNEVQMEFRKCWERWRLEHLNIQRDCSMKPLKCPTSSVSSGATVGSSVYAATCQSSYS

B1: mCMD307 (2050-K4) (peptide)
peptide: Y[Aib]EGTFTSDYSIYKDKQAA[Aib]KFVNWLLAGGPSSGAPPPS-NH2
modifications: bridge 14-21; not fully specified (bridges); also: K4 staple carries PEG-fatty acid

Assays:
Assay in all cases: cell-based or functional assay
human GIP receptor [1] = molecular target: T1, human GIP receptor
human GLP-1 receptor [2] = molecular target: T6, human GLP-1 receptor (human, UniProt P43220 24-463)
human GIP receptor [3] = molecular target: T1, human GIP receptor; remark: listed apart in the source
human GLP-1 receptor [4] = molecular target: T6, human GLP-1 receptor; remark: listed apart in the source
human GIP receptor [5] = molecular target: T1, human GIP receptor; remark: listed apart in the source
human GLP-1 receptor [6] = molecular target: T6, human GLP-1 receptor; remark: listed apart in the source
human GIP receptor [7] = molecular target: T1, human GIP receptor; remark: listed apart in the source
human GLP-1 receptor [8] = molecular target: T6, human GLP-1 receptor; remark: listed apart in the source
human GIP receptor [9] = molecular target: T1, human GIP receptor; remark: listed apart in the source
mouse GIPR = molecular target: T2, mouse GIPR
dog GIPR = dog GIPR (dog)
dog GLP1R = molecular target: T3, dog GLP1R
cynomolgus monkey GLP1R = cynomolgus monkey GLP1R (cynomolgus monkey, UniProt F8V479 24-463)
cynomolgus monkey GIPR = molecular target: T4, cynomolgus monkey GIPR
mouse GLP1R = molecular target: T5, mouse GLP1R

Binder | EC50 [nM] of receptor-mediated cAMP synthesis (human GIP receptor [1]) | EC50 [nM] of receptor-mediated cAMP synthesis (human GLP-1 receptor [2]) | EC50 of receptor-mediated cAMP synthesis, GIPR (nM), 02/19 (human GIP receptor [3]) | EC50 of receptor-mediated cAMP synthesis, GIPR (nM), 03/25 (human GIP receptor [3]) | EC50 of receptor-mediated cAMP synthesis, GIPR (nM), 03/26 (human GIP receptor [3]) | EC50 of receptor-mediated cAMP synthesis, GIPR (nM), average (human GIP receptor [3]) | EC50 of receptor-mediated cAMP synthesis, GLP1R (nM), 02/19 (human GLP-1 receptor [4]) | EC50 of receptor-mediated cAMP synthesis, GLP1R (nM), 3/25 (human GLP-1 receptor [4]) | In Vitro Potency GIPR EC50 [nM], Mouse (mouse GIPR) | In Vitro Potency GIPR EC50 [nM], Dog (dog GIPR) | In Vitro Potency GLP1R EC50 [nM], Dog (dog GLP1R) | In Vitro Potency GLP1R EC50 [nM], Cyno (cynomolgus monkey GLP1R) | In Vitro Potency GIPR EC50 [nM], Cyno (cynomolgus monkey GIPR) | other results
B1 | 0.01 nM | 0.03 nM | 0.04 nM | 0.01 nM | 0.01 nM | 0.02 nM | 0.01 nM | 0.01 nM | – | – | – | – | – | EC50 of receptor-mediated cAMP synthesis, GLP1R (nM), 03/26 (human GLP-1 receptor [4]): 0.01 nM; EC50 of receptor-mediated cAMP synthesis, GLP1R (nM), average (human GLP-1 receptor [4]): 0.01 nM; EC50 [nM] of receptor-mediated cAMP synthesis (human GIP receptor [5]): 0.02 nM; EC50 [nM] of receptor-mediated cAMP synthesis (human GLP-1 receptor [6]): 0.01 nM; EC50 [nM] of receptor-mediated cAMP synthesis (human GIP receptor [7]): 0.01 nM; EC50 [nM] of receptor-mediated cAMP synthesis (human GLP-1 receptor [8]): 0.03 nM
Y[Aib]EGTFTSDYSIYLDKCAA[Aib]EFVCWLIAGGPSSGAPPPS-NH2 (linker 17-24 via L5A(S); not fully specified; reading uncertain) [mCMZ371 (C(17-24)-L5A(S))] | – | – | – | – | – | – | – | – | 0.27 nM | 0.47 nM | 1.34 nM | 0.11 nM | – | In Vitro Potency GIPR EC50 [nM], 10% FBS (human GIP receptor [9]): 0.04 nM
YAEGTFISDYSIAMDKIHQQDFVNWLLAQKGKKNDWKHNITQ-NH2 (ligand) [wild-type human GIP] | – | – | – | – | – | – | – | – | – | 0.7 nM | – | – | 0.69 nM | –
Y[Aib]EGTFTSDYSIYLDKCAA[Aib]EFVCWLIAGGPSSGAPPPS-NH2 (linker 17-24 via C20L5A; not fully specified; reading uncertain) [mCMV268 (27I, C(17-24)-C20L5A)] | – | – | 0.05 nM | 0.04 nM | 0.03 nM | 0.04 nM | – | – | 0.26 nM | – | 1.48 nM | 0.22 nM | 0.16 nM | In Vitro Potency GLP1R EC50 [nM], Mouse (mouse GLP1R): 0.26 nM
Y[Aib]EGTFTSDYSIYLDKCAA[Aib]EFVCWLLAGGPSSGAPPPS-NH2 (linker 17-24 via L5A; not fully specified; reading uncertain) [C(17-24)-L5A] | 0.05 nM | 0.11 nM | – | – | – | – | – | – | – | – | – | – | – | –
Y[Aib]EGTFTSDYSIYLDKCAA[Aib]EFVCWLLAGGPSSGAPPPS-NH2 (linker 17-24 via C20L5A; not fully specified; reading uncertain) [C(17-24)-C20L5A] | 0.05 nM | 0.11 nM | 0.04 nM | 0.02 nM | 0.03 nM | 0.03 nM | 0.07 nM | 0.1 nM | – | – | – | – | – | –
